Assay results reported in patent US20090022782A1, “Blood Retainable Device Exhibiting Selective Degradability in Tumor Tissue” (NATIONAL UNIVERSITY CORP. HOKKAIDO UNIVERSITY, priority 2005, published 2009).
Ends that are not written are not given here. * marks the point of attachment. DOPE = dioleoylphosphatidylethanolamine, CCCCCCCC/C=C\CCCCCCCC(=O)OC[C@H](COP(=O)(O)OCCN*)OC(=O)CCCCCCC/C=C\CCCCCCCC; MeO‑PEG succinate = methoxy poly(ethylene glycol) succinate

How the values were obtained:
HT1080 cells = experiment: Gene expression (luciferase activity) after transfection with MENDs, HT1080 cells; format: cell-based, human
Procedure: (§1) By using D′MEM added with inactivated FBS (FBS final concentration: 10%), the human fibrosarcoma-derived HT1080 cells were cultured on a sterilized culture dish in a CO2 incubator (37° C., 5% CO2). When the cells reached 70% confluence, the cells were removed from the dish by using 0.5 mM EDTA-PBS, the cell suspension was diluted to a density of 1 to 5×10^4 cells/mL using fresh D′MEM, and the cells were subcultured on a sterilized dish. In a similar manner, human kidney […] HEK293 cells were cultured. In the case of the HEK293 cells, the cells were removed from the dish by using 0.05% Trypsin/0.5 mM EDTA-PBS, and subcultured.
(§2) One day before the transfection, the HT1080 cells and the HEK293 cells were each inoculated into 1 mL of a medium on a 24-well plate at a density of 4×10^4 cells/well. A sample, prepared to be corresponding to 0.4 μg of DNA, was diluted to 250 μL with FBS- and antibiotic-free D′MEM (hereinafter abbreviated as “D′MEM(−)”) in the case of a serum free medium, or diluted similarly with D′MEM in the case of serum containing medium. […] The luciferase activity (RLU) in 20 μL of the supernatant was measured, and proteins were measured according to the BCA method for the supernatant diluted 5 times with DDW to calculate RLU/mg protein.

HEK293 cells = experiment: Gene expression (luciferase activity) after transfection with MENDs, HEK293 cells; format: cell-based, human
Procedure: as §1, §2

MMP-2 [1] = biological target: T1, MMP-2 (Homo sapiens, UniProt P08253); experiment: Evaluation of PEG cleavage by MMP-2 (aggregation / particle diameter of DOPE liposomes); format: biochemical; conditions: for aggregation of the liposomes: DOPE liposomes containing PEG-peptide-DOPE at 10%
T1 construct: purchased Sigma
T1 sequence (P08253 110-660): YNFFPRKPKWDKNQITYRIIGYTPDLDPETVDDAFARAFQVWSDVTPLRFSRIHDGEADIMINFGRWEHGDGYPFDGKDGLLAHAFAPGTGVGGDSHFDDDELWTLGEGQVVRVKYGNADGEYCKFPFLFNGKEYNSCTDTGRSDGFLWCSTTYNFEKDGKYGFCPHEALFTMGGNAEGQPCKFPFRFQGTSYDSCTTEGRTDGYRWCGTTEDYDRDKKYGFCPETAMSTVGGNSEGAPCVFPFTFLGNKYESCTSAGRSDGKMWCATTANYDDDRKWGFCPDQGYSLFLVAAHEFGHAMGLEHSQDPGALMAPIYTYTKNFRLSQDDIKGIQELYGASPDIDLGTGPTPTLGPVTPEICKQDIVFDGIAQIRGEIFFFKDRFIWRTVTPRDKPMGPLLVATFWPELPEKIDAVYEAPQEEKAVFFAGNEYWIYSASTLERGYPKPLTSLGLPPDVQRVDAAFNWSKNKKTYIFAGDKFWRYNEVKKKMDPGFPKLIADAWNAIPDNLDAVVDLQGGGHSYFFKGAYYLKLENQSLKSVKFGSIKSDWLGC
Procedure: It was evaluated whether or not the PEG-peptide-DOPE obtained in Example 1 was cleavable with MMP. For in vitro evaluation, a system was used with which the cleavage of PEG was detected on the basis of an increase in particle diameter. […] Cylinder-shaped lipids form a lamellar structure (bilayer structure), i.e., a liposome structure, whereas inverse cone-shape lipids form a […] (FIG. 1). It is known that when a PEG-lipid is added at a certain ratio to DOPE, the lipids form a lamellar structure and stably form liposomes. Therefore, if a matrix metalloproteinase is made to act on DOPE-containing liposomes prepared by using PEG-peptide-DOPE, thereby the peptide is decomposed and PEG is cleaved, DOPE molecules from which PEG is cleaved can no longer form liposomes, and take the hexagonal structure to initiate the aggregation. The above hypothesis was adopted as an evaluation method for PEG cleavage. Further, for in vitro evaluation of PEG cleavage, a method of measuring genetic expression activity was adopted. If the interaction of MEND and cell membranes is enhanced by cleavage of PEG, […].
(§3) A 1 mM lipid solution dissolved in ethanol, of which 125 μL was taken as 100%, was put into test tubes at various molar ratios, and a 1 mM DOPE-PEG solution was also added as required. Chloroform was added in the same volume of ethanol to the mixture in each tube, and the mixture was stirred. Then, the solvent was evaporated in a desiccator to obtain a lipid membrane. After the preparation of the lipid membrane, a solution (250 μL) containing 20 mM HEPES (pH 7.4), 280 mM NaCl, and 4 mM CaCl2 was added, and after hydration for 30 minutes, the mixture was sonicated for 1 minute to prepare liposomes.
(§4) Then, to the prepared liposomes (50 μL), PBS (10 μL), 230 nM or 5.5 nM MMP-2 in terms of final concentration, and 230 nM bovine serum albumin in terms of final concentration were added, the mixture was incubated at 37° C., and after 2, 8 and 24 hours, the particle diameter was measured. […] Even with the addition of 1% of DOPE-PEG, liposomes having a particle size less than 200 nm and showing stable dispersion was successfully prepared.

[2] = Particle diameter and aggregation of DOPE liposomes versus addition ratio of PEG-lipid; format: physicochemical; conditions: for aggregation on incubation: DOPE liposomes with PEG-peptide-DOPE, 37° C.
Procedure: as §3, §4
Also in this experiment, liposomes having a particle size less than 200 nm and showing stable dispersion were similarly prepared with the addition of 1% of PEG-peptide-DOPE.

[3] = Particle diameter and zeta-potential of compaction body and MENDs (Example 4); format: physicochemical; conditions: Example 4, in HBG; PEG-lipid ratio (5% or 15%) not given
Procedure: According to the formula (I) mentioned in Example 3, the charge ratio (+/−) was determined to be 1.5, and a compaction body of pDNA coding for luciferase and protamine was prepared in HEPES buffered glucose (10 mM HEPES, pH 7.4, 5% glucose, HBG).
In the same manner as that of Example 3, a lipid membrane consisting of 30% DOTAP, 40% DOPE, and 30% Chol was prepared. To this membrane, PEG-DSPE or PEG-peptide-DOPE was added at a molar ratio of 5% or 15%, and the mixture was evaporated to obtain lipid membranes. Then, the compaction body was added to each of these lipid membranes, and the mixtures were sonicated to prepare MEND, PEG-modified MEND containing PEG-DSPE, and PEG-modified MEND containing PEG-peptide-DOPE.

[4] = Particle diameter and zeta-potential of MENDs (Example 3); format: physicochemical
Procedure: In order to prepare a negatively charged compaction body, the charge ratio (+/−) was determined to be 1.5 according to the formula (1). To 30 μL of pDNA (0.5 mg/mL), 120 μL of 10 mM HEPES-HCl (pH 7.4) was added. To 5 μL of protamine (2 mg/mL), […] of 10 mM HEPES-HCl (pH 7.4) was added. Protamine was slowly added dropwise to the pDNA solution with stirring by a vortex mixer. Formation of the compaction body was confirmed by measurement of the particle diameter and zeta-potential.
Lipid solutions of 1 mM in ethanol, each of which 125 μL was taken as 100%, were put into test tubes at molar ratios of 30% DOTAP, 40% DOPE, and 30% Chol. As for addition of PEG-lipids, 1 mM PEG-DSPE solution or PEG-peptide-DOPE solution in ethanol was added at a molar ratio of 5% or 15% based on the lipids except for the PEG-lipids, which were taken as 100%. Chloroform was added in the same volume of ethanol to the mixture in each tube, and the mixture was stirred. Then, the solvent was evaporated in a desiccator to obtain a lipid membrane. Then, the compaction body solution (250 μL) was added to the lipid membrane, and the mixture was left standing at room temperature for 15 to 30 minutes for hydration, and then sonicated for 1 to 2 minutes. The particle diameter and the zeta-potential were measured. Any significant difference was not observed between the values measured for MENDs containing PEG-peptide-DOPE and MENDs containing PEG-DSPE, and thus it was considered that equivalent MENDs were successfully prepared.

MMP-2 [5] = biological target: T1, MMP-2; experiment: Decomposition of the peptide by MMP-2, reverse phase HPLC; format: biochemical; conditions: 0.5 mM peptide, MMP2 53 nM, 230 nM and 450 nM, 37° C., 2 hours
Procedure: Matrix metalloproteinase 2 (MMP-2) was purchased from Sigma. DOPE-PEG was purchased from Avanti. Trypsin was purchased from Life Technologies. DISMIC was purchased from Advantec. Reverse phase HPLC was performed by using Model 1321H1 (GILSON), UV/VIS-155 (GILSON) as a detector, SOSMOSIL 5C18-AR-II (Nacalai Tesque) as a column, and 0.5% TFA-H2O and 0.5% TFA-acetonitrile filtered through Millicup-LH vacuum-driven bottletop filter unit (Millipore) as a mobile phase. The flow rate was 1.0 mL/minute.
First, it was examined whether or not the peptide was decomposed by MMP-2. A 0.5 mM peptide solution (25 μL) dissolved in a solution containing 10 mM HEPES (pH 7.4), 140 mM NaCl and 2 mM CaCl2 was analyzed by reverse phase HPLC. Further, MMP2 was added to the 0.5 mM peptide solution (25 μL) at a final concentration of 53 nM, 230 nM and 450 nM, each mixture was incubated at 37° C. for 2 hours, and then the whole volume of the mixture was analyzed by HPLC to confirm whether or not the peptide was decomposed by MMP2.

[6] = MEND with PEG-lipid at molar ratio 5%
[7] = MEND with PEG-lipid at molar ratio 15%

Row | Substance | increase of gene expression compared with PEG-DSPE (HT1080 cells; MEND modified with 5% of PEG) [times] | gene expression activity compared with the PEG-DSPE modification group (HT1080 cells; MEND modified with 15% of PEG) | increase of gene expression compared with PEG-DSPE (HEK293 cells; MEND modified with 5% of PEG) [times] | gene expression activity compared with the PEG-DSPE modification group (HEK293 cells; MEND modified with 15% of PEG) | aggregation of the liposomes (MMP-2 [1]; 5.5 nM MMP-2, 37° C.) | aggregation of the liposomes (MMP-2 [1]; 230 nM BSA, 37° C.) | aggregation of the liposomes (MMP-2 [1]; 230 nM MMP-2, 37° C.) | aggregation of the liposomes (MMP-2 [1]; in PBS, 37° C.) | cleavage by MMP-2 (MMP-2 [1]; lipid in the state of constituting liposomes) | aggregation on incubation ([2]; PEG content up to 5%) | aggregation on incubation ([2]; addition amount of 10%) | particle size ([2]; DOPE liposomes, addition of 1% of PEG-peptide-DOPE) | elevation of phase transition temperature compared with DOPE-PEG ([2]; DOPE liposomes, suggested by the results) | particle diameter [3] [nm] | ξ -potential [3] [mV] | particle diameter [4, 6] [nm] | zeta-potential [4, 6] | particle diameter [4, 7] [nm] | zeta-potential [4, 7] | decomposition of the peptide by MMP-2 (HPLC peak of degradation product) (MMP-2 [5])
1 | PEG-peptide-DOPE: MeO-PEG succinate bound to Gly-Gly-Gly-Val-Pro-Leu-Ser-Leu-Tyr-Ser-Gly-Gly-Gly-Gly, bound to dioleoylphosphatidylethanolamine; tested as component of liposomes and MENDs ({MeO‑PEG succinate}-GGGVPLSLYSGGGG-{DOPE}) | 35 | did not give the increase of the gene expression activity | 5 | did not give the increase of the gene expression activity | Aggregation of the liposomes was not observed | Aggregation was not observed | aggregation was observed | Aggregation of the liposomes was not observed | cleaved by MMP-2 | aggregation was observed | aggregation was not observed | less than 200 nm | did not elevate the phase transition temperature as much as DOPE-PEG | 141 | 12.8 | 162.2 | +18.79 mV | 141.2 | +2.80 mV | –
2 | GGGVPLSLYSGGGG [peptide] | – | – | – | – | – | – | – | – | – | – | – | – | – | – | – | – | – | – | – | peak became larger in an enzyme concentration-dependent manner
